Target: T1, LOV KELCH PROTEIN 2 fused with GFP (LKP2-GFP) (Arabidopsis thaliana, UniProt Q8W420 1-611)
T1 construct: LKP2, Arabidopsis thaliana, AT2G18915; Own promoter-driven genomic LKP2; source: Arabidopsis 35Sp:PRR5-F/lkp2-cr3/LKP2-GFP transgenic seedlings, in protein extract
Assay: co-IP; LKP2-GFP immunoprecipitated with anti-GFP antibodies from 35Sp:PRR5-F/lkp2-cr3/LKP2-GFP seedlings kept at 12° or 28°C for 24 hours with MG132; PRR5-FLAG detected by Western blot; three biological replicates
Conditions: partners not purified

T1 sequence (Q8W420 whole entry, the tested form may be a part): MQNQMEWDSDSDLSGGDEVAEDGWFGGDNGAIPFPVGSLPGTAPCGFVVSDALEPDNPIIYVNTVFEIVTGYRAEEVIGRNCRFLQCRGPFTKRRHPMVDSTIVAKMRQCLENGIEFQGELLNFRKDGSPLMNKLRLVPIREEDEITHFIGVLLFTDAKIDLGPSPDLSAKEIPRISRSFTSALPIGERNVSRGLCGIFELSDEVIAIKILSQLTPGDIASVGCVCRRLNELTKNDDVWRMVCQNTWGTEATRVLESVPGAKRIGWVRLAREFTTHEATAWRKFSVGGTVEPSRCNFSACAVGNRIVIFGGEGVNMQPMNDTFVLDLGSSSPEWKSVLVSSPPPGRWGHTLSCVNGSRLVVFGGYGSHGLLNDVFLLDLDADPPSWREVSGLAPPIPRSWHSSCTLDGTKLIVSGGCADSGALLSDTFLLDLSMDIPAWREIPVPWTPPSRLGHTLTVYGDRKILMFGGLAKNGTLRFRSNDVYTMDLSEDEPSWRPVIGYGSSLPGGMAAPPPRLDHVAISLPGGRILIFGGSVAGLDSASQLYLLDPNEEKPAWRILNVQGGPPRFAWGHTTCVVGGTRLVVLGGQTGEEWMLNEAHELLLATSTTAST

B1: PSEUDO-RESPONSE REGULATOR 5 with a C-terminal triple FLAG tag (PRR5-FLAG) (natural protein, Arabidopsis thaliana, UniProt Q6LA42 1-558, looked up)
chain: MTSSEEVVEVTVVKAPEAGGGKLSRRKIRKKDAGVDGLVKWERFLPKIALRVLLVEADDSTRQIIAALLRKCSYRVAAVPDGLKAWEMLKGKPESVDLILTEVDLPSISGYALLTLIMEHDICKNIPVIMMSTQDSVNTVYKCMLKGAADYLVKPLRRNELRNLWQHVWRRQTSLAPDSFPWNESVGQQKAEGASANNSNGKRDDHVVSGNGGDAQSSCTRPEMEGESADVEVSARDAVQMECAKSQFNETRLLANELQSKQAEAIDFMGASFRRTGRRNREESVAQYESRIELDLSLRRPNASENQSSGDRPSLHPSSASAFTRYVHRPLQTQCSASPVVTDQRKNVAASQDDNIVLMNQYNTSEPPPNAPRRNDTSFYTGADSPGPPFSNQLNSWPGQSSYPTPTPINNIQFRDPNTAYTSAMAPASLSPSPSSVSPHEYSSMFHPFNSKPEGLQDRDCSMDVDERRYVSSATEHSAIGNHIDQLIEKKNEDGYSLSVGKIQQSLQREAALTKFRMKRKDRCYEKKVRYESRKKLAEQRPRIKGQFVRQVQSTQAP
notes: PRR5, Arabidopsis thaliana; source: Arabidopsis 35Sp:PRR5-F transgenic seedlings (also 35Sp:PRR5-F/lkp2-cr3/LKP2-GFP), in protein extract; not shown: 3xFLAG, C-terminal, kept
For B1, the “fold of co-immunoprecipitated PRR5-FLAG at 12°C against 28°C” value was 15.9 fold.

From paper PMC11430399, “Cold-induced degradation of core clock proteins implements temperature compensation in the Arabidopsis circadian clock” (Science Advances, 2024)
